In paper PMC9174199, “Structural basis for MTA1c-mediated DNA N6-adenine methylation” (Nature Communications, 2022):
Substitutions are numbered along the chain they refer to. Names may count otherwise. One block for each molecule: values may come before it.

Assays:
[1] = target: T1, TthMTA1 (residues 126-372)-Tthp2 crystal complex (Tetrahymena thermophila, UniProt Q22GC0); experiment: X-ray crystal structure, soaking; type: binding; settings: site in MTA1 MTase domain
T1 construct: gene TTHERM_00704040; N-terminally truncated MTA1 with p2
T1 sequence (Q22GC0 182-428): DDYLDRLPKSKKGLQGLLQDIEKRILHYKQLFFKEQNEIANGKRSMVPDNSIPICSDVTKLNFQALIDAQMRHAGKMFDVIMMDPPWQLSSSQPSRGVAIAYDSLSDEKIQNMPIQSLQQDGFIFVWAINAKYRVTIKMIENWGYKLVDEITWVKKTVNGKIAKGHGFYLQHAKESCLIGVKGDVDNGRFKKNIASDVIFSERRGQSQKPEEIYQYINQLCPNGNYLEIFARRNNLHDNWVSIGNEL

[2] = target: T2, TthMTA1 (residues 126–372)-Tthp1-Tthp2 crystal complex (Tetrahymena thermophila, UniProt Q22GC0); experiment: X-ray crystal structure, soaking; type: binding; settings: site in MTA1 MTase domain
T2 construct: gene TTHERM_00704040; N-terminally truncated MTA1 with p1 and p2; p1 degraded in the crystal, only its HTH domain seen
T2 sequence (Q22GC0 182-428): T1 sequence (Q22GC0 182-428)

[3] = target: Paramecium tetraurelia MTA9 (PteMTA9), untagged; experiment: GST pull-down; settings: parent: 100
[4] = target: T3, TthMTA1-TthMTA9-Tthp2 ternary complex (ITC) (Tetrahymena thermophila, UniProt Q22GC0); experiment: isothermal titration calorimetry; settings: 25 °C, pH 7.5, 300 mM NaCl, no DNA
T3 construct: gene TTHERM_00704040

TthMTA1-Ptep2 (ITC) = target: T4, TthMTA1-Ptep2 (ITC) (Tetrahymena thermophila, UniProt Q22GC0); experiment: isothermal titration calorimetry; settings: 25 °C, pH 7.5, 300 mM NaCl, no DNA
T4 construct: gene TTHERM_00704040

[5] = target: T5, TthMTA1c (MTA1-MTA9-p1-p2 quaternary complex) (Tetrahymena thermophila, UniProt Q22GC0); experiment: isothermal titration calorimetry; settings: 25 °C, pH 7.5, 300 mM NaCl, no DNA
T5 construct: gene TTHERM_00704040

[6] = target: T6, TthMTA1-Tthp2 binary complex (ITC) (Tetrahymena thermophila, UniProt Q22GC0); experiment: isothermal titration calorimetry; settings: 25 °C, pH 7.5, 300 mM NaCl, no DNA
T6 construct: gene TTHERM_00704040

[7] = target: T7, TthMTA1-Tthp1-Tthp2 ternary complex (ITC) (Tetrahymena thermophila, UniProt Q22GC0); experiment: isothermal titration calorimetry; settings: 25 °C, pH 7.5, 300 mM NaCl, no DNA
T7 construct: gene TTHERM_00704040

[8] = target: Tetrahymena thermophila MTA1 (TthMTA1), untagged (Tetrahymena thermophila); experiment: SEC; Superdex 200 Increase 10/300; purified proteins mixed at equimolar ratio (1:1, 1:1:1 or 1:1:1:1), 60 min on ice; 20 mM Tris pH 7.5, 300 mM NaCl, 2 mM DTT; peak fractions on SDS-PAGE
[9] = target: T8, GST-MTA1 (residues 171-372); experiment: GST pull-down; settings: chain shown with the change;; parent: 100
T8 chain: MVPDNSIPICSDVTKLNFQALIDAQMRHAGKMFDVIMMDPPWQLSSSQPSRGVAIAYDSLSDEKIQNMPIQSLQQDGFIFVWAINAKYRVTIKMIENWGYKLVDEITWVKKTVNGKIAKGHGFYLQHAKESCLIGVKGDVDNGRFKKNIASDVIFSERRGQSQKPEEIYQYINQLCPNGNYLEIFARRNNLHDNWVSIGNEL

His6GST-Tthp2 = target: T9, His6GST-Tthp2; experiment: GST pull-down; settings: chain shown with the change;; parent: 100
T9 chain: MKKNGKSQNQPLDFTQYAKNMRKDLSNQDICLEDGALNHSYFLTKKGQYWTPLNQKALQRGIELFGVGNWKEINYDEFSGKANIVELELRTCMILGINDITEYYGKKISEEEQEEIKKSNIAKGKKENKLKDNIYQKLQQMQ

[10] = target: T10, Tetrahymena thermophila MTA1 (TthMTA1), untagged; experiment: GST pull-down; settings: chain shown with the change;; parent: 100
T10 chain: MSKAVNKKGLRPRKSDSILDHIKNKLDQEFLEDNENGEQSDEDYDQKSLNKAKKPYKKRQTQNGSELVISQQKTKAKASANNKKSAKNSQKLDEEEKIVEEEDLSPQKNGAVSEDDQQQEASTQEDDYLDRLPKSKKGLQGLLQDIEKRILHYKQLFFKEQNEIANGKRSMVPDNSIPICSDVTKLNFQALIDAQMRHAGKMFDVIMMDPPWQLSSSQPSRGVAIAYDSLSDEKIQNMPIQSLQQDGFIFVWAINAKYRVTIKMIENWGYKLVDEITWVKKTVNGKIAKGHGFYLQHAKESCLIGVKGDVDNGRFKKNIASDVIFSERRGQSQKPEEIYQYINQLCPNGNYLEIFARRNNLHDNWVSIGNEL

[11] = target: T10, Tetrahymena thermophila MTA1 (TthMTA1), …; experiment: GST pull-down, gray scanning of bound MTA1 band; settings: chain shown with the change;; parent: 100

Molecule: Nc1ncnc2c1ncn2[C@@H]1O[C@H](CSCC[C@H](N)C(=O)O)[C@@H](O)[C@H]1O [SAH]
- X-ray crystal structure, soaking ([1]; 1 mM SAH soak): further confirmed by our SAM- and SAH-bound MTA1-p2 structures
- X-ray crystal structure, soaking ([2]; 3.0 Å, 1 mM SAH soak): the SAH product-bound MTA1-p1-p2 complex by soaking approach

- percent of parent [3]: 97%
Molecule: GST-MTA1 (residues 171-372) H297A

- percent of parent [3]: 12%
Molecule: GST-MTA1 (residues 171-372) Y294A

- percent of parent [3]: 7%
Molecule: GST-MTA1 (residues 171-372) L295A

- Kd [4]: 3.64 ± 0.56 µM
- Kd (TthMTA1-Ptep2 (ITC)): 67.8 ± 5.45 µM
- Kd [5]: 2.4 ± 0.26 µM
- Kd [6]: 44.6 ± 3.4 µM
- X-ray crystal structure, soaking ([2]; 3.4 Å, 1 mM SAM soak): SAM donor-bound MTA1-p1-p2 complex
- Kd [7]: 14.8 ± 2.71 µM
Molecule: C[S+](CC[C@H](N)C(=O)O)C[C@H]1O[C@@H](n2cnc3c(N)ncnc32)[C@H](O)[C@@H]1O (some centres unmarked) [SAM]
- X-ray crystal structure, soaking ([1]; 1 mM SAM soak): further confirmed by our SAM- and SAH-bound MTA1-p2 structures

- stoichiometry N [8]: 1
Molecule: Tetrahymena thermophila MTA9 (TthMTA9), untagged (natural protein)

- percent of parent [3]: 95%
Molecule: GST-MTA1 (residues 171-372) Q296A

- percent of parent [9]: 45%
B1: Paramecium tetraurelia MTA9 (PteMTA9), untagged V219A (protein)
chain: MGKNQRESLRMRLRYNEPGSENKRINYFKLNQGYDITEDDSEYMDEQDSYKAFKKIRKYKTKSKEDKVTCDNLEVLLQWKGSINCQSYETDQKKIVVLKKILGTDLSQYAKGVQGIFIDNLFKKDLKNLDISKKLISNGILFIWSDKSLINEILETMENKGFTYIENLVVVQLSLEQALEELNKHMKIEQTEDAVLDNLDFLQQKVQVKDLILHRPSKALNQSKQVLIMFRKFDEQKSQLELRHQRTPDVLFDIVNNGKSCLKTKEYIYQTIETLLPKSQLMEIFAQKDQPRKGWISVCENK

- percent of parent [9]: 99%
B2: Paramecium tetraurelia MTA9 (PteMTA9), untagged K218A (protein)
chain: B1 chain with K218A, A219V

- percent of parent [9]: 0%
B3: Paramecium tetraurelia MTA9 (PteMTA9), untagged Y164A (protein)
chain: B1 chain with Y164A, A219V

- percent of parent [9]: 73%
B4: Paramecium tetraurelia MTA9 (PteMTA9), untagged L220A (protein)
chain: B1 chain with A219V, L220A

- percent of parent (His6GST-Tthp2): 4%
B5: Tetrahymena thermophila MTA1 (TthMTA1), untagged R358A (protein)
chain: T10 chain with R358A

- percent of parent [10]: 78%
B6: His6GST-Tthp1 L173A (protein)
chain: MSLKKGKFQHNQSKSLWNYTLSPGWREEEVKILKSALQLFGIGKWKKIMESGCLPGKSIGQIYMQTQRLLGQQSLGDFMGLQIDLEAVFNQNMKKQDVLRKNNCIINTGDNPTKEERKRRIEQNRKIYGLSAKQIAEIKLPKVKKHAPQYMTLEDIENEKFTNLEILTHLYNAKAEIVRRLAEQGETIAQPSIIKSLNNLNHNLEQNQNSNSSTETKVTLEQSGKKKYKVLAIEETELQNGPIATNSQKKSINGKRKNNRKINSDSEGNEEDISLEDIDSQESEINSEEIVEDDEEDEQIEEPSKIKKRKKNPEQESEEDDIEEDQEEDELVVNEEEIFEDDDDDEDNQDSSEDDDDDED

- percent of parent [10]: 0%
B7: His6GST-Tthp1 L167A; L170A (protein)
chain: B6 chain with L167A, L170A, A173L

- percent of parent [10]: 0%
B8: His6GST-Tthp1 L167A; L170A; L173A (protein)
chain: B6 chain with L167A, L170A

- percent of parent [10]: 78%
B9: His6GST-Tthp1 I177A (protein)
chain: B6 chain with A173L, I177A

- percent of parent [10]: 0%
B10: His6GST-Tthp1 L167A; L170A; L173A; I177A (protein)
chain: B6 chain with L167A, L170A, I177A

- percent of parent [10]: 48%
B11: His6GST-Tthp1 L167A (protein)
chain: B6 chain with L167A, A173L

- percent of parent [10]: 47%
B12: His6GST-Tthp1 L170A (protein)
chain: B6 chain with L170A, A173L

- percent of parent [11]: 0%
B13: His6GST-Tthp2 H39A (protein)
chain: T9 chain with H39A

- percent of parent [11]: 0%
B14: His6GST-Tthp2 R22A (protein)
chain: T9 chain with R22A

- percent of parent [11]: 0%
B15: His6GST-Tthp2 Y41A (protein)
chain: T9 chain with Y41A

- percent of parent [11]: 77%
B16: His6GST-Tthp2 D24A (protein)
chain: T9 chain with D24A

- percent of parent [11]: 0%
B17: His6GST-Tthp2 Y17A (protein)
chain: T9 chain with Y17A

- percent of parent [11]: 50%
B18: His6GST-Tthp2 S26A (protein)
chain: T9 chain with S26A
